Data reported in US20220228164A1, “ENGINEERED ANTIGEN PRESENTING CELLS” (Neogene Therapeutics B.V., priority 2021, published 2022).

System: primary human B cells
Assay: Expansion and maintenance of BCL-6/BCL-XL/CD40L transduced primary human B cells in culture
Type: cell-based
Settings: BCL-6/BCL-xL transduced B cells, IL-21 50 ng/mL, absence of L-cells
Protocol: The activated, isolated B cells (FIG. 7A) were stably transduced with BCL-6/BCL-xL or a combination of BCL-6/BCL-XL and CD40L based protocols for retroviral transduction of primary B cells have been described in the literature (e.g. Kwakkenbos et al. Nat Med 2010) and as described in this invention (Example 10).
After 72 hours BCL-6/BCL-XL modified B cells were harvested, split and either cultured in the absence of L-cells or cultured on hCD40L expressing L cells. BCL-6/BCL-xL and CD40L transduced B cells are cultured in complete B cell medium supplemented with 50 ng/mL IL-21 in the absence of L-cells. […] CD40L expression on the B cells is measured on a flow cytometer using an antibody directed against CD154 (FIG. 7C).
B cells were isolated from healthy donor PBMC using the magnetic bead-based cell separation method from Miltenyi. […] Purity of the isolated B cells was measured by FACS using antibodies directed against CD3 and CD20. […] Expression of BCL6/BCL-xL was measured by FACS by GFP expression. […] Expression of BCL6/BCL-xL was measured by GFP expression and expression of CD40L was measured using an antibody directed against CD154, analyzed by FACS. […] Cells were split twice a week at a concentration of 0.2e6/mL cells and cell viability was analyzed. […] The total cumulative cell counts was calculated based on counts that were measured while splitting the cells. […]

B1: CD40L transgene: hCD40L transgene expressed in BCL-6/BCL-xL immortalized B cells (protein)
DNA: MIETYNQTSPRSAATGLPISMKIFMYLLTVFLITQMIGSALFAVYLHRRLDKIEDERNLHEDFVFMKTIQRCNTGERSLSLLNCEEIKSQFEGFVKDIMLNKEETKKENSFEMQKGDQNPQIAAHVISEASSKTTSVLQWAEKGYYTMSNNLVTLENGKQLTVKRQGLYYIYAQVTFCSNREASSQAPFIASLCLKSPGRFERILLRAANTHSSAKPCGQQSIHLGGVFELQPGASVFVNVTDPSQVSHGTGFTSFGLLKL
B1 was tested, and the “B cell expansion without CD40L-expressing feeder cells” value was “can be used as a replacement for CD40L-expressing feeder cells for expansion”.
